Source: patent publication US20200123268A1 (UNIVERSIT DEGLI STUDI MAGNA GRAECIA CATANZARO, published 2020)

T1: human CD43, endogenous, on primary cells and cell lines that carry the UMG1 epitope (human, UniProt P16150 20-400, native glycosylation of the cell concerned)
T1 construct: also called UMG1 antigen; the target
T1 sequence: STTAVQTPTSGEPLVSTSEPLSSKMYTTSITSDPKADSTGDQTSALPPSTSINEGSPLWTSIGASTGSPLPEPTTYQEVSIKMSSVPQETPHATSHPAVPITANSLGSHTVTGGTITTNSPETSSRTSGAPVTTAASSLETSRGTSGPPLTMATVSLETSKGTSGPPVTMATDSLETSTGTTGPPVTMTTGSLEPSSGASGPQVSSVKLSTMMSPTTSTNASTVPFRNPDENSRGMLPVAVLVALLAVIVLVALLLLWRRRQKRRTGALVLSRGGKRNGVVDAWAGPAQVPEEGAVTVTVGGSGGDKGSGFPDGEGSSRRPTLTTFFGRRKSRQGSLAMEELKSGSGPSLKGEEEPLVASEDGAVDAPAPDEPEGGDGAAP

B1: ch-UMG1 (chimeric antibody: murine UMG1 variable regions on human IgG1 constant regions) (antibody, V domains shown)
VH: DVQLVESGGGLVQPGGSRKLSCVASGFTFSSFGMHWVRQAPEKGLEWVAYISSGSGNFYYVDTVKGRFTISRDNPKNTLFLQMTSLRSEDTAMYYCARSTYYHGSRGAMDYWGQGTSVTVSS
VL: QIALTQSPAIMSASPGEKVTMTCSASSSVSSMYWYQLKPGSSPRLLIYDTSKMASGVPIRFSGSGSGTSFSLTVSRVEAEDAATYYCQQWSSYPPITFGAGSKLELKR
notes: also called chimeric mAb ch-UMG1; chimeric mAb
B2: humanized UMG1 antibody H3-L1 (VH3 + VL1) (antibody, IgG1, V domains shown)
VH: EVQLVESGGGLVQPGGSLRLSCVASGFTFSSFGMHWVRQAPGKGLEWVAYISSGSGNFYYVDTVKGRFTISRDNAKNSLYLQMNSLRAEDTAVYYCARSTYYHGSRGAMDYWGQGTLVTVSS
VL: EIVLTQSPATLSLSPGERATLSCSASSSVSSMYWYQQKPGLAPRLLIYDTSKMASGIPDRFSGSGSGTDFTLTISRLEPEDFAVYYCQQWSSYPPITFGQGTRLEIK
notes: The label follows the pattern H3-L4
B3: humanized UMG1 antibody H3-L3 (VH3 + VL3) (antibody, IgG1, V domains shown)
VH: EVQLVESGGGLVQPGGSLRLSCVASGFTFSSFGMHWVRQAPGKGLEWVAYISSGSGNFYYVDTVKGRFTISRDNAKNSLYLQMNSLRAEDTAVYYCARSTYYHGSRGAMDYWGQGTLVTVSS
VL: QVVMTQSPAFLSVTPGEKVTITCSASSSVSSMYWYQQKPDQAPKLLIYDTSKMASGVPSRFSGSGSGTDFTFTISSLEAEDAATYYCQQWSSYPPITFGGGTKVEIK
notes: as for B2
B4: humanized UMG1 antibody H4-L1 (VH4 + VL1) (antibody, IgG1, V domains shown)
VH: QVQLVESGGGVVQPGGSLRLSCVASGFTFSSFGMHWVRQAPGKGLEWVAYISSGSGNFYYVDTVKGRFTISRDNSKNTLYLQMNSLRAEDTAVYYCARSTYYHGSRGAMDYWGQGTLVTVSS
VL: EIVLTQSPATLSLSPGERATLSCSASSSVSSMYWYQQKPGLAPRLLIYDTSKMASGIPDRFSGSGSGTDFTLTISRLEPEDFAVYYCQQWSSYPPITFGQGTRLEIK
notes: as for B2
B5: humanized UMG1 antibody H2-L2 (VH2 + VL2) (antibody, IgG1, V domains shown)
VH: EVQLVESGGGLVQPGGSLRLSCVASGFTFSSFGMHWVRQAPGKGLEWVSYISSGSGNFYYVDTVKGRFTISRDNAKNSLYLQMNSLRAEDTAVYYCARSTYYHGSRGAMDYWGQGTLVTVSS
VL: EIALTQSPATLSLSPGERATLSCSASSSVSSMYWYQLKPGLAPRLLIYDTSKMASGIPIRFSGSGSGTDFTLTVSRVEPEDFAVYYCQQWSSYPPITFGQGTRLEIK
notes: as for B2
B6: humanized UMG1 antibody H2-L4 (VH2 + VL4) (antibody, IgG1, V domains shown)
VH: EVQLVESGGGLVQPGGSLRLSCVASGFTFSSFGMHWVRQAPGKGLEWVSYISSGSGNFYYVDTVKGRFTISRDNAKNSLYLQMNSLRAEDTAVYYCARSTYYHGSRGAMDYWGQGTLVTVSS
VL: QVVMTQSPAFLSVTPGEKVTITCSASSSVSSMYWYQLKPDQAPKLLIYDTSKMASGVPIRFSGSGSGTDFTFTVSSVEAEDAATYYCQQWSSYPPITFGGGTKVEIK
notes: as for B2
B7: humanized UMG1 antibody H4-L4 (VH4 + VL4) (antibody, IgG1, V domains shown)
VH: QVQLVESGGGVVQPGGSLRLSCVASGFTFSSFGMHWVRQAPGKGLEWVAYISSGSGNFYYVDTVKGRFTISRDNSKNTLYLQMNSLRAEDTAVYYCARSTYYHGSRGAMDYWGQGTLVTVSS
VL: QVVMTQSPAFLSVTPGEKVTITCSASSSVSSMYWYQLKPDQAPKLLIYDTSKMASGVPIRFSGSGSGTDFTFTVSSVEAEDAATYYCQQWSSYPPITFGGGTKVEIK
notes: as for B2
B8: humanized UMG1 antibody H3-L2 (VH3 + VL2) (antibody, IgG1, V domains shown)
VH: EVQLVESGGGLVQPGGSLRLSCVASGFTFSSFGMHWVRQAPGKGLEWVAYISSGSGNFYYVDTVKGRFTISRDNAKNSLYLQMNSLRAEDTAVYYCARSTYYHGSRGAMDYWGQGTLVTVSS
VL: EIALTQSPATLSLSPGERATLSCSASSSVSSMYWYQLKPGLAPRLLIYDTSKMASGIPIRFSGSGSGTDFTLTVSRVEPEDFAVYYCQQWSSYPPITFGQGTRLEIK
notes: as for B2
B9: humanized UMG1 antibody H1-L3 (VH1 + VL3) (antibody, IgG1, V domains shown)
VH: EVQLVESGGGLVQPGGSLRLSCAASGFTFSSFGMHWVRQAPGKGLEWVSYISSGSGNFYYVDTVKGRFTISRDNAKNSLYLQMNSLRAEDTAVYYCARSTYYHGSRGAMDYWGQGTLVTVSS
VL: QVVMTQSPAFLSVTPGEKVTITCSASSSVSSMYWYQQKPDQAPKLLIYDTSKMASGVPSRFSGSGSGTDFTFTISSLEAEDAATYYCQQWSSYPPITFGGGTKVEIK
notes: as for B2
B10: humanized UMG1 antibody H1-L2 (VH1 + VL2) (antibody, IgG1, V domains shown)
VH: EVQLVESGGGLVQPGGSLRLSCAASGFTFSSFGMHWVRQAPGKGLEWVSYISSGSGNFYYVDTVKGRFTISRDNAKNSLYLQMNSLRAEDTAVYYCARSTYYHGSRGAMDYWGQGTLVTVSS
VL: EIALTQSPATLSLSPGERATLSCSASSSVSSMYWYQLKPGLAPRLLIYDTSKMASGIPIRFSGSGSGTDFTLTVSRVEPEDFAVYYCQQWSSYPPITFGQGTRLEIK
notes: as for B2
B11: humanized UMG1 antibody H4-L3 (VH4 + VL3) (antibody, IgG1, V domains shown)
VH: QVQLVESGGGVVQPGGSLRLSCVASGFTFSSFGMHWVRQAPGKGLEWVAYISSGSGNFYYVDTVKGRFTISRDNSKNTLYLQMNSLRAEDTAVYYCARSTYYHGSRGAMDYWGQGTLVTVSS
VL: QVVMTQSPAFLSVTPGEKVTITCSASSSVSSMYWYQQKPDQAPKLLIYDTSKMASGVPSRFSGSGSGTDFTFTISSLEAEDAATYYCQQWSSYPPITFGGGTKVEIK
notes: as for B2
B12: humanized UMG1 antibody H1-L1 (VH1 + VL1) (antibody, IgG1, V domains shown)
VH: EVQLVESGGGLVQPGGSLRLSCAASGFTFSSFGMHWVRQAPGKGLEWVSYISSGSGNFYYVDTVKGRFTISRDNAKNSLYLQMNSLRAEDTAVYYCARSTYYHGSRGAMDYWGQGTLVTVSS
VL: EIVLTQSPATLSLSPGERATLSCSASSSVSSMYWYQQKPGLAPRLLIYDTSKMASGIPDRFSGSGSGTDFTLTISRLEPEDFAVYYCQQWSSYPPITFGQGTRLEIK
notes: as for B2
B13: humanized UMG1 antibody H1-L4 (VH1 + VL4) (antibody, IgG1, V domains shown)
VH: EVQLVESGGGLVQPGGSLRLSCAASGFTFSSFGMHWVRQAPGKGLEWVSYISSGSGNFYYVDTVKGRFTISRDNAKNSLYLQMNSLRAEDTAVYYCARSTYYHGSRGAMDYWGQGTLVTVSS
VL: QVVMTQSPAFLSVTPGEKVTITCSASSSVSSMYWYQLKPDQAPKLLIYDTSKMASGVPIRFSGSGSGTDFTFTVSSVEAEDAATYYCQQWSSYPPITFGGGTKVEIK
notes: as for B2
B14: humanized UMG1 antibody H4-L2 (VH4 + VL2) (antibody, IgG1, V domains shown)
VH: QVQLVESGGGVVQPGGSLRLSCVASGFTFSSFGMHWVRQAPGKGLEWVAYISSGSGNFYYVDTVKGRFTISRDNSKNTLYLQMNSLRAEDTAVYYCARSTYYHGSRGAMDYWGQGTLVTVSS
VL: EIALTQSPATLSLSPGERATLSCSASSSVSSMYWYQLKPGLAPRLLIYDTSKMASGIPIRFSGSGSGTDFTLTVSRVEPEDFAVYYCQQWSSYPPITFGQGTRLEIK
notes: as for B2
B15: humanized UMG1 antibody H2-L1 (VH2 + VL1) (antibody, IgG1, V domains shown)
VH: EVQLVESGGGLVQPGGSLRLSCVASGFTFSSFGMHWVRQAPGKGLEWVSYISSGSGNFYYVDTVKGRFTISRDNAKNSLYLQMNSLRAEDTAVYYCARSTYYHGSRGAMDYWGQGTLVTVSS
VL: EIVLTQSPATLSLSPGERATLSCSASSSVSSMYWYQQKPGLAPRLLIYDTSKMASGIPDRFSGSGSGTDFTLTISRLEPEDFAVYYCQQWSSYPPITFGQGTRLEIK
notes: as for B2
B16: humanized UMG1 antibody H2-L3 (VH2 + VL3) (antibody, IgG1, V domains shown)
VH: EVQLVESGGGLVQPGGSLRLSCVASGFTFSSFGMHWVRQAPGKGLEWVSYISSGSGNFYYVDTVKGRFTISRDNAKNSLYLQMNSLRAEDTAVYYCARSTYYHGSRGAMDYWGQGTLVTVSS
VL: QVVMTQSPAFLSVTPGEKVTITCSASSSVSSMYWYQQKPDQAPKLLIYDTSKMASGVPSRFSGSGSGTDFTFTISSLEAEDAATYYCQQWSSYPPITFGGGTKVEIK
notes: as for B2

Each binder was assayed against T1, human CD43, endogenous, on primary … (assay: flow cytometry, antibody at 1 ug/ml, FITC mouse anti-human IgG secondary; cell line of the histograms not labelled (HPB-ALL or H9)).
Description: (§1) Each screening was performed twice, for a total of 4 replicates.

Binding result, binds:
B1

Each binder was assayed against T1, human CD43, endogenous, on primary … (assay: flow cytometry, antibody at 1 ug/ml, FITC mouse anti-human IgG secondary; histogram grid, cell line not labelled (HPB-ALL or H9)).
Description: as §1

Binding result, binds:
B2
B3
B4
B5
B6
B7
B8
B9
B10
B11
B12
B13
B14
B15
B16
